Laboratory results from patent US20150344570A1 (published 2015).

T1: FcγRIIb (human, UniProt P31994 43-217)
T1 construct: extracellular domain; Soluble extracellular domain with C-terminal His tag, used as analyte; also called FcgRIIb; CD32B; not shown: His tag at the C terminus
T1 sequence (looked up): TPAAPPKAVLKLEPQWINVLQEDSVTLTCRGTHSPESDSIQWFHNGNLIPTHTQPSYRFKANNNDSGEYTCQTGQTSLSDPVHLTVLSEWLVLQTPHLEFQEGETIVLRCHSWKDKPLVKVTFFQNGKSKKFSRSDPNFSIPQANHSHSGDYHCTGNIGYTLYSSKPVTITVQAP


How the values were obtained:
FcγRIa = biological target: T2, FcγRIa (human, UniProt P12314 16-292); assay: SPR (Biacore), captured antibody, FcγR as analyte, relative binding
T2 construct: extracellular domain; Soluble extracellular domain with C-terminal His tag, used as analyte; also called FcgRI; CD64; not shown: His tag at the C terminus
T2 sequence (P12314 16-292): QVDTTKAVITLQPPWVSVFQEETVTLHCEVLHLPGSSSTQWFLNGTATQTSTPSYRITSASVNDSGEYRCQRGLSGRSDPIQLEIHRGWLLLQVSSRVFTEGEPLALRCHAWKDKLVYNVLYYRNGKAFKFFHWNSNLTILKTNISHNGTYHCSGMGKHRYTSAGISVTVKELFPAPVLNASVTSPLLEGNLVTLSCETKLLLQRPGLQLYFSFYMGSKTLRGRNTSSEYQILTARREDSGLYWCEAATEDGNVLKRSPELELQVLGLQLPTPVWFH
Procedure: (§1) The heterodimerized antibodies He Abs in which one of the H chains was introduced with an alteration were assayed for their binding activities to each activating FcγR and inhibitory FcγR according to the method described in Example 4. […] The activating FcγRs in FIGS. 26, 27, 28, and 29 are FcγRIa, FcγRIIa (R), FcγRIIa (H), and FcγRIIIa, respectively.
(§2) Analysis of interaction between objective antibody and the FcγR was carried out using Biacore T100 (GE Healthcare). HBS-EP+ (GE Healthcare) was used as the running buffer, and the measurement temperature was set to 25° C. Chips produced by immobilizing the antigen peptide by the amine coupling method to a Series S Sencor Chip CM5 (GE Healthcare), or alternatively, chips produced by allowing preliminarily biotinylated antigen peptides to interact with and immobilize onto a Series S Sensor Chip SA (certified) (GE Healthcare) were used. Antibodies of interest were captured onto an antigen peptide-immobilized chip, and allowed to interact to each FcγR diluted with running buffer. To regenerate and repeatedly use the chip, the antibodies captured on the chip were washed off by reacting 10 mM glycine-HCl, pH 1.5.

FcγRIIb = biological target: T1, FcγRIIb; assay: as above
Procedure: as §1, §2

Row | He/Con_1a (FcγRIa) | He/Con_2b (FcγRIIb) | Binder
1 | 88.8 % of GpH7-A5/GpH7-B3/GpL16-k0 | 26 % of GpH7-A5/GpH7-B3/GpL16-k0 | GpH7-A5/GpH7-B3 variant N325_05P/GpL16-k0 (antibody, human IgG1, kappa, He Ab: mutation in one H chain only; also called He Ab) heavy 1: not shown heavy 2: not shown light: DIVMTQSPLSLPVTPGEPASISCQASESLVHSNRNTYLHWYLQKPGQSPQLLIYKVSNRFSGVPDRFSGSGSGTDFTLKISRVEAEDVGVYYCSQNTHVPPTFGQGTKVEIERTVAAPSVFIFPPSDEQLKSGTASVVCLLNNFYPREAKVQWKVDNALQSGNSQESVTEQDSKDSTYSLSSTLTLSKADYEKHKVYACEVTHQGLSSPVTKSFNRGEC
2 | 107 % of GpH7-A5/GpH7-B3/GpL16-k0 | 77.9 % of GpH7-A5/GpH7-B3/GpL16-k0 | GpH7-A5/GpH7-B3 variant S298_14T/GpL16-k0 (antibody, human IgG1, kappa, He Ab: mutation in one H chain only; also called He Ab) heavy 1: not shown heavy 2: not shown light: DIVMTQSPLSLPVTPGEPASISCQASESLVHSNRNTYLHWYLQKPGQSPQLLIYKVSNRFSGVPDRFSGSGSGTDFTLKISRVEAEDVGVYYCSQNTHVPPTFGQGTKVEIERTVAAPSVFIFPPSDEQLKSGTASVVCLLNNFYPREAKVQWKVDNALQSGNSQESVTEQDSKDSTYSLSSTLTLSKADYEKHKVYACEVTHQGLSSPVTKSFNRGEC
3 | 84.2 % of GpH7-A5/GpH7-B3/GpL16-k0 | 19.1 % of GpH7-A5/GpH7-B3/GpL16-k0 | GpH7-A5/GpH7-B3 variant N325_12R/GpL16-k0 (antibody, human IgG1, kappa, He Ab: mutation in one H chain only; also called He Ab) heavy 1: not shown heavy 2: not shown light: DIVMTQSPLSLPVTPGEPASISCQASESLVHSNRNTYLHWYLQKPGQSPQLLIYKVSNRFSGVPDRFSGSGSGTDFTLKISRVEAEDVGVYYCSQNTHVPPTFGQGTKVEIERTVAAPSVFIFPPSDEQLKSGTASVVCLLNNFYPREAKVQWKVDNALQSGNSQESVTEQDSKDSTYSLSSTLTLSKADYEKHKVYACEVTHQGLSSPVTKSFNRGEC
4 | 109 % of GpH7-A5/GpH7-B3/GpL16-k0 | 61.3 % of GpH7-A5/GpH7-B3/GpL16-k0 | GpH7-A5/GpH7-B3 variant S298_11K/GpL16-k0 (antibody, human IgG1, kappa, He Ab: mutation in one H chain only; also called He Ab) heavy 1: not shown heavy 2: not shown light: DIVMTQSPLSLPVTPGEPASISCQASESLVHSNRNTYLHWYLQKPGQSPQLLIYKVSNRFSGVPDRFSGSGSGTDFTLKISRVEAEDVGVYYCSQNTHVPPTFGQGTKVEIERTVAAPSVFIFPPSDEQLKSGTASVVCLLNNFYPREAKVQWKVDNALQSGNSQESVTEQDSKDSTYSLSSTLTLSKADYEKHKVYACEVTHQGLSSPVTKSFNRGEC
5 | 99.1 % of GpH7-A5/GpH7-B3/GpL16-k0 | 69.1 % of GpH7-A5/GpH7-B3/GpL16-k0 | GpH7-A5/GpH7-B3 variant N325_19Q/GpL16-k0 (antibody, human IgG1, kappa, He Ab: mutation in one H chain only; also called He Ab) heavy 1: not shown heavy 2: not shown light: DIVMTQSPLSLPVTPGEPASISCQASESLVHSNRNTYLHWYLQKPGQSPQLLIYKVSNRFSGVPDRFSGSGSGTDFTLKISRVEAEDVGVYYCSQNTHVPPTFGQGTKVEIERTVAAPSVFIFPPSDEQLKSGTASVVCLLNNFYPREAKVQWKVDNALQSGNSQESVTEQDSKDSTYSLSSTLTLSKADYEKHKVYACEVTHQGLSSPVTKSFNRGEC
6 | 104 % of GpH7-A5/GpH7-B3/GpL16-k0 | 41.1 % of GpH7-A5/GpH7-B3/GpL16-k0 | GpH7-A5/GpH7-B3 variant S298_20W/GpL16-k0 (antibody, human IgG1, kappa, He Ab: mutation in one H chain only; also called He Ab) heavy 1: not shown heavy 2: not shown light: DIVMTQSPLSLPVTPGEPASISCQASESLVHSNRNTYLHWYLQKPGQSPQLLIYKVSNRFSGVPDRFSGSGSGTDFTLKISRVEAEDVGVYYCSQNTHVPPTFGQGTKVEIERTVAAPSVFIFPPSDEQLKSGTASVVCLLNNFYPREAKVQWKVDNALQSGNSQESVTEQDSKDSTYSLSSTLTLSKADYEKHKVYACEVTHQGLSSPVTKSFNRGEC
7 | 106 % of GpH7-A5/GpH7-B3/GpL16-k0 | 48.3 % of GpH7-A5/GpH7-B3/GpL16-k0 | GpH7-A5/GpH7-B3 variant S298_09D/GpL16-k0 (antibody, human IgG1, kappa, He Ab: mutation in one H chain only; also called He Ab) heavy 1: not shown heavy 2: not shown light: DIVMTQSPLSLPVTPGEPASISCQASESLVHSNRNTYLHWYLQKPGQSPQLLIYKVSNRFSGVPDRFSGSGSGTDFTLKISRVEAEDVGVYYCSQNTHVPPTFGQGTKVEIERTVAAPSVFIFPPSDEQLKSGTASVVCLLNNFYPREAKVQWKVDNALQSGNSQESVTEQDSKDSTYSLSSTLTLSKADYEKHKVYACEVTHQGLSSPVTKSFNRGEC
8 | 108 % of GpH7-A5/GpH7-B3/GpL16-k0 | 47.6 % of GpH7-A5/GpH7-B3/GpL16-k0 | GpH7-A5/GpH7-B3 variant S298_10E/GpL16-k0 (antibody, human IgG1, kappa, He Ab: mutation in one H chain only; also called He Ab) heavy 1: not shown heavy 2: not shown light: DIVMTQSPLSLPVTPGEPASISCQASESLVHSNRNTYLHWYLQKPGQSPQLLIYKVSNRFSGVPDRFSGSGSGTDFTLKISRVEAEDVGVYYCSQNTHVPPTFGQGTKVEIERTVAAPSVFIFPPSDEQLKSGTASVVCLLNNFYPREAKVQWKVDNALQSGNSQESVTEQDSKDSTYSLSSTLTLSKADYEKHKVYACEVTHQGLSSPVTKSFNRGEC

The remaining lines, values behind:

Row | Binder | He/Con_1a (FcγRIa) | He/Con_2b (FcγRIIb)
9 | GpH7-A5/GpH7-B3 variant S298_18N/GpL16-k0 (antibody, human IgG1, kappa, He Ab: mutation in one H chain only; also called He Ab) heavy 1: not shown heavy 2: not shown light: DIVMTQSPLSLPVTPGEPASISCQASESLVHSNRNTYLHWYLQKPGQSPQLLIYKVSNRFSGVPDRFSGSGSGTDFTLKISRVEAEDVGVYYCSQNTHVPPTFGQGTKVEIERTVAAPSVFIFPPSDEQLKSGTASVVCLLNNFYPREAKVQWKVDNALQSGNSQESVTEQDSKDSTYSLSSTLTLSKADYEKHKVYACEVTHQGLSSPVTKSFNRGEC | 108 % of GpH7-A5/GpH7-B3/GpL16-k0 | 48.1 % of GpH7-A5/GpH7-B3/GpL16-k0
10 | GpH7-A5/GpH7-B3 variant N325_16H/GpL16-k0 (antibody, human IgG1, kappa, He Ab: mutation in one H chain only; also called He Ab) heavy 1: not shown heavy 2: not shown light: DIVMTQSPLSLPVTPGEPASISCQASESLVHSNRNTYLHWYLQKPGQSPQLLIYKVSNRFSGVPDRFSGSGSGTDFTLKISRVEAEDVGVYYCSQNTHVPPTFGQGTKVEIERTVAAPSVFIFPPSDEQLKSGTASVVCLLNNFYPREAKVQWKVDNALQSGNSQESVTEQDSKDSTYSLSSTLTLSKADYEKHKVYACEVTHQGLSSPVTKSFNRGEC | 95.1 % of GpH7-A5/GpH7-B3/GpL16-k0 | 70.1 % of GpH7-A5/GpH7-B3/GpL16-k0
11 | GpH7-A5/GpH7-B3 variant S298_19Q/GpL16-k0 (antibody, human IgG1, kappa, He Ab: mutation in one H chain only; also called He Ab) heavy 1: not shown heavy 2: not shown light: DIVMTQSPLSLPVTPGEPASISCQASESLVHSNRNTYLHWYLQKPGQSPQLLIYKVSNRFSGVPDRFSGSGSGTDFTLKISRVEAEDVGVYYCSQNTHVPPTFGQGTKVEIERTVAAPSVFIFPPSDEQLKSGTASVVCLLNNFYPREAKVQWKVDNALQSGNSQESVTEQDSKDSTYSLSSTLTLSKADYEKHKVYACEVTHQGLSSPVTKSFNRGEC | 109 % of GpH7-A5/GpH7-B3/GpL16-k0 | 73.3 % of GpH7-A5/GpH7-B3/GpL16-k0
12 | GpH7-A5/GpH7-B3 variant S298_12R/GpL16-k0 (antibody, human IgG1, kappa, He Ab: mutation in one H chain only; also called He Ab) heavy 1: not shown heavy 2: not shown light: DIVMTQSPLSLPVTPGEPASISCQASESLVHSNRNTYLHWYLQKPGQSPQLLIYKVSNRFSGVPDRFSGSGSGTDFTLKISRVEAEDVGVYYCSQNTHVPPTFGQGTKVEIERTVAAPSVFIFPPSDEQLKSGTASVVCLLNNFYPREAKVQWKVDNALQSGNSQESVTEQDSKDSTYSLSSTLTLSKADYEKHKVYACEVTHQGLSSPVTKSFNRGEC | 109 % of GpH7-A5/GpH7-B3/GpL16-k0 | 57.8 % of GpH7-A5/GpH7-B3/GpL16-k0
13 | GpH7-A5/GpH7-B3 variant N325_11K/GpL16-k0 (antibody, human IgG1, kappa, He Ab: mutation in one H chain only; also called He Ab) heavy 1: not shown heavy 2: not shown light: DIVMTQSPLSLPVTPGEPASISCQASESLVHSNRNTYLHWYLQKPGQSPQLLIYKVSNRFSGVPDRFSGSGSGTDFTLKISRVEAEDVGVYYCSQNTHVPPTFGQGTKVEIERTVAAPSVFIFPPSDEQLKSGTASVVCLLNNFYPREAKVQWKVDNALQSGNSQESVTEQDSKDSTYSLSSTLTLSKADYEKHKVYACEVTHQGLSSPVTKSFNRGEC | 80.9 % of GpH7-A5/GpH7-B3/GpL16-k0 | 10.4 % of GpH7-A5/GpH7-B3/GpL16-k0
14 | GpH7-A5/GpH7-B3 variant S298_16H/GpL16-k0 (antibody, human IgG1, kappa, He Ab: mutation in one H chain only; also called He Ab) heavy 1: not shown heavy 2: not shown light: DIVMTQSPLSLPVTPGEPASISCQASESLVHSNRNTYLHWYLQKPGQSPQLLIYKVSNRFSGVPDRFSGSGSGTDFTLKISRVEAEDVGVYYCSQNTHVPPTFGQGTKVEIERTVAAPSVFIFPPSDEQLKSGTASVVCLLNNFYPREAKVQWKVDNALQSGNSQESVTEQDSKDSTYSLSSTLTLSKADYEKHKVYACEVTHQGLSSPVTKSFNRGEC | 109 % of GpH7-A5/GpH7-B3/GpL16-k0 | 63.5 % of GpH7-A5/GpH7-B3/GpL16-k0
15 | GpH7-A5/GpH7-B3 variant S298_15Y/GpL16-k0 (antibody, human IgG1, kappa, He Ab: mutation in one H chain only; also called He Ab) heavy 1: not shown heavy 2: not shown light: DIVMTQSPLSLPVTPGEPASISCQASESLVHSNRNTYLHWYLQKPGQSPQLLIYKVSNRFSGVPDRFSGSGSGTDFTLKISRVEAEDVGVYYCSQNTHVPPTFGQGTKVEIERTVAAPSVFIFPPSDEQLKSGTASVVCLLNNFYPREAKVQWKVDNALQSGNSQESVTEQDSKDSTYSLSSTLTLSKADYEKHKVYACEVTHQGLSSPVTKSFNRGEC | 107 % of GpH7-A5/GpH7-B3/GpL16-k0 | 61.4 % of GpH7-A5/GpH7-B3/GpL16-k0
